Reference: the supplement of paper PMC9233669
This sample holds only a part of the variants without activity.

Experiments:
biotinyl-Phe-oxazolone = test: self-aminoacylation, catalytic enhancement (BFO) (fold over background); higher = more active; k-Seq, kA / k0A0; sequences stand for … in GGGAAUGGAUCCACAUCUACGAAUUC…UUCACUGCAGACUUGACGAAGCUG
Outline: (§1)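 Mutagenized RNA pools (0.43 μM; 21-nt variable region) were treated with 2–1250 μM of each biotinyl-aminoacyl-oxazolone. Conditions were 50 μL HEPES/NaCl/KCl/MgCl2/CaCl2 buffer, 5% acetonitrile, pH 6.9–7.0, room temperature, 90 minutes. Catalytic enhancement, the median kA relative to the uncatalyzed rate, was derived from streptavidin capture, qPCR and Illumina sequencing.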

biotinyl-Ile-oxazolone = test: self-aminoacylation, catalytic enhancement (BIO) (fold over background); higher = more active; k-Seq, kA / k0A0; sequences stand for … in GGGAAUGGAUCCACAUCUACGAAUUC…UUCACUGCAGACUUGACGAAGCUG
Outline: as §1

biotinyl-Met-oxazolone = test: self-aminoacylation, catalytic enhancement (BMO) (fold over background); higher = more active; k-Seq, kA / k0A0; sequences stand for … in GGGAAUGGAUCCACAUCUACGAAUUC…UUCACUGCAGACUUGACGAAGCUG
Outline: as §1

biotinyl-Val-oxazolone = test: self-aminoacylation, catalytic enhancement (BVO) (fold over background); higher = more active; k-Seq, kA / k0A0; sequences stand for … in GGGAAUGGAUCCACAUCUACGAAUUC…UUCACUGCAGACUUGACGAAGCUG
Outline: as §1

biotinyl-Leu-oxazolone = test: self-aminoacylation, catalytic enhancement (BLO) (fold over background); higher = more active; k-Seq, kA / k0A0; sequences stand for … in GGGAAUGGAUCCACAUCUACGAAUUC…UUCACUGCAGACUUGACGAAGCUG
Outline: as §1

biotinyl-Trp-oxazolone = test: self-aminoacylation, catalytic enhancement (BWO) (fold over background); higher = more active; k-Seq, kA / k0A0; sequences stand for … in GGGAAUGGAUCCACAUCUACGAAUUC…UUCACUGCAGACUUGACGAAGCUG
Outline: as §1

Row | Sequence | self-aminoacylation (biotinyl-Phe-oxazolone) | self-aminoacylation (biotinyl-Ile-oxazolone) | self-aminoacylation (biotinyl-Met-oxazolone) | self-aminoacylation (biotinyl-Val-oxazolone) | self-aminoacylation (biotinyl-Leu-oxazolone) | self-aminoacylation (biotinyl-Trp-oxazolone)
1 | AUUCACCCCGGUCAUCGGGUG [Fam2.2 aminoacylation ribozyme variant] | 64.7 | 4.14 | 7.52 | 3.99 | 8.33 | 5.88
2 | AUUCACCGAGGCCAUCGGGUG [Fam2.2 aminoacylation ribozyme variant] | 32.8 | 3.16 | 5.31 | 4.36 | 6.39 | 4.78
3 | AUUCACCGAGGUAAUCGGGUG [Fam2.2 aminoacylation ribozyme variant] | 60.4 | 4.23 | 8.27 | 5.13 | 11.5 | 8.26
4 | AUUCACCGAGGUCAUCGGAUG [Fam2.2 aminoacylation ribozyme variant] | 0.641 | 1.18 | 1.07 | 1.17 | 1.41 | 1.42
5 | AUUCACCGAGGUCGUCGGGUG [Fam2.2 aminoacylation ribozyme variant] | 11.1 | 2.55 | 3.16 | 2.55 | 3.03 | 3
6 | AUUCACCGAGGUGAUCGGGUG [Fam2.2 aminoacylation ribozyme variant] | 29.6 | 3.8 | 4.75 | 4.15 | 6.59 | 3.05
7 | AUUCACCGAGGUUAUCGGGUG [Fam2.2 aminoacylation ribozyme variant] | 87.3 | 4.28 | 7.16 | 5.85 | 10 | 7.66
8 | AUUCACCUAACUCAUCGGGUG [Fam2.2 aminoacylation ribozyme variant] | 22.8 | 2.36 | 4.05 | 2.41 | 4.47 | 3.17
9 | AUUCACCUAAGCCAUCGGGUG [Fam2.2 aminoacylation ribozyme variant] | 26.6 | 2.55 | 3 | 3.24 | 4.62 | 3.01
10 | AUUCACCUAAGGCAUCGGGUG [Fam2.2 aminoacylation ribozyme variant] | 26.5 | 2.69 | 3.3 | 3.31 | 4.9 | 3.67
11 | AUUCACCUAAGUCAACGGGUG [Fam2.2 aminoacylation ribozyme variant] | 28 | 2.58 | 3.57 | 2.43 | 4.67 | 3.21
12 | AUUCACCUAAGUCACCGGGUG [Fam2.2 aminoacylation ribozyme variant] | 53.8 | 4.72 | 7.03 | 4.88 | 8.36 | 5.67
13 | AUUCACCUAAGUCAUAGGGUG [Fam2.2 aminoacylation ribozyme variant] | 5.88 | 1.32 | 1.87 | 1.21 | 1.92 | 1.3
14 | AUUCACCUAAGUCAUCGGAUG [Fam2.2 aminoacylation ribozyme variant] | 0.343 | 0.917 | 0.736 | 0.983 | 0.815 | 0.557
15 | AUUCACCUAAGUCAUCGGCUG [Fam2.2 aminoacylation ribozyme variant] | 5.86 | 1.52 | 1.55 | 1.58 | 1.63 | 0.999
16 | AUUCACCUAAGUCAUCGGGAG [Fam2.2 aminoacylation ribozyme variant] | 0.578 | 1.07 | 1.2 | 1.49 | 1.81 | 1.14
17 | AUUCACCUAAGUCAUCGGGCG [Fam2.2 aminoacylation ribozyme variant] | 9.59 | 2.63 | 2.83 | 2.53 | 4.95 | 2.51
18 | AUUCACCUACGUCAUAGGGUG [Fam2.2 aminoacylation ribozyme variant] | 0.864 | 0.915 | 1.34 | 0.933 | 1.02 | 0.634
19 | AUUCACCUACGUCAUCGCGUG [Fam2.2 aminoacylation ribozyme variant] | 83.5 | 5.7 | 10.3 | 5.93 | 14.1 | 9.63
20 | AUUCACCUACGUCAUCGGGUC [Fam2.2 aminoacylation ribozyme variant] | 4.31 | 1.17 | 1.25 | 1.21 | 1.36 | 0.963
21 | AUUCACCUACGUCAUCGGGUG [Fam2.2 aminoacylation ribozyme variant] | 36.7 | 3.24 | 5.27 | 3.38 | 6.98 | 4.79
22 | AUUCACCUACGUGAUCGGGUG [Fam2.2 aminoacylation ribozyme variant] | 20.2 | 2.19 | 2.81 | 2 | 3.64 | 3.44
23 | AUUCACCUAGAUCAUCGCGUG [Fam2.2 aminoacylation ribozyme variant] | 48.1 | 3.85 | 5.82 | 3.69 | 8.58 | 5.99
24 | AUUCACCUAGAUCAUCGGUUG [Fam2.2 aminoacylation ribozyme variant] | 0.463 | 0.794 | 0.778 | 0.983 | 0.786 | 0.447
25 | AUUCACCUAGAUCAUCUGGUG [Fam2.2 aminoacylation ribozyme variant] | 14.8 | 1.71 | 2.39 | 1.73 | 2.82 | 2.21
26 | AUUCACCUAGAUCAUGGGGUG [Fam2.2 aminoacylation ribozyme variant] | 31.5 | 3.07 | 5.3 | 2.61 | 6.83 | 4.68

Row | Sequence | self-aminoacylation (biotinyl-Phe-oxazolone) | self-aminoacylation (biotinyl-Ile-oxazolone) | self-aminoacylation (biotinyl-Met-oxazolone) | self-aminoacylation (biotinyl-Val-oxazolone) | self-aminoacylation (biotinyl-Leu-oxazolone) | self-aminoacylation (biotinyl-Trp-oxazolone)
27 | AUUCACCUAGAUCCUCGGGUG [Fam2.2 aminoacylation ribozyme variant] | 22.6 | 2.22 | 3.57 | 1.99 | 4.04 | 3.16
28 | AUUCACCUAGAUCGUCGGGUG [Fam2.2 aminoacylation ribozyme variant] | 3.8 | 1.14 | 1.06 | 1.38 | 1.3 | 0.967
29 | AUUCACCUAGCUCAACGGGUG [Fam2.2 aminoacylation ribozyme variant] | 6.75 | 1.37 | 1.88 | 1.36 | 2.28 | 1.95
30 | AUUCACCUAGCUCAUCCGGUG [Fam2.2 aminoacylation ribozyme variant] | 16.5 | 2.45 | 3.18 | 2.51 | 3.7 | 3.68
31 | AUUCACCUAGCUCAUCGAGUG [Fam2.2 aminoacylation ribozyme variant] | 0.417 | 0.7 | 0.652 | 0.791 | 0.548 | 0.394
32 | AUUCACCUAGCUCAUCGGUUG [Fam2.2 aminoacylation ribozyme variant] | 0.258 | 0.978 | 0.921 | 0.845 | 0.861 | 0.533
33 | AUUCACCUAGCUCAUUGGGUG [Fam2.2 aminoacylation ribozyme variant] | 5.14 | 1.44 | 1.89 | 1.69 | 1.62 | 2.07
34 | AUUCACCUAGCUCUUCGGGUG [Fam2.2 aminoacylation ribozyme variant] | 10.9 | 2.08 | 2.25 | 2.42 | 2.62 | 2.74
35 | AUUCACCUAGGAAAUCGGGUG [Fam2.2 aminoacylation ribozyme variant] | 53 | 4.03 | 6.99 | 3.5 | 8.95 | 5.87
36 | AUUCACCUAGGACAUCCGGUG [Fam2.2 aminoacylation ribozyme variant] | 31 | 7.62 | 5.98 | 6.22 | 6 | 4.47
37 | AUUCACCUAGGACAUCGCGUG [Fam2.2 aminoacylation ribozyme variant] | 26.8 | 2.53 | 3.57 | 2.83 | 4.57 | 3.99
38 | AUUCACCUAGGACAUCUGGUG [Fam2.2 aminoacylation ribozyme variant] | 8.71 | 2.02 | 2.13 | 1.72 | 2.13 | 2.13
39 | AUUCACCUAGGACAUUGGGUG [Fam2.2 aminoacylation ribozyme variant] | 25.8 | 2.24 | 3.42 | 2.28 | 4 | 2.79
40 | AUUCACCUAGGACGUCGGGUG [Fam2.2 aminoacylation ribozyme variant] | 9.18 | 1.66 | 1.91 | 1.88 | 1.91 | 1.42
41 | AUUCACCUAGGCCAUCCGGUG [Fam2.2 aminoacylation ribozyme variant] | 32 | 4.25 | 5.26 | 4.6 | 5.83 | 5.92
42 | AUUCACCUAGGCCAUCGCGUG [Fam2.2 aminoacylation ribozyme variant] | 31.6 | 4.69 | 4.45 | 4.15 | 6.31 | 3.85
43 | AUUCACCUAGGCCAUCGGGUA [Fam2.2 aminoacylation ribozyme variant] | 16.4 | 2.42 | 3.31 | 2.21 | 3.81 | 3.52
44 | AUUCACCUAGGCCAUUGGGUG [Fam2.2 aminoacylation ribozyme variant] | 34.9 | 3.11 | 4.09 | 2.85 | 5.31 | 3.71
45 | AUUCACCUAGGCCCUCGGGUG [Fam2.2 aminoacylation ribozyme variant] | 24.2 | 2.81 | 3.26 | 3.1 | 3.88 | 3.75
46 | AUUCACCUAGGCCUUCGGGUG [Fam2.2 aminoacylation ribozyme variant] | 19.9 | 2.49 | 3.67 | 3.43 | 5.19 | 3.83
47 | AUUCACCUAGGCUAUCGGGUG [Fam2.2 aminoacylation ribozyme variant] | 21.8 | 2.43 | 3.76 | 3.06 | 4.84 | 3.79
48 | AUUCACCUAGGGCAUCCGGUG [Fam2.2 aminoacylation ribozyme variant] | 54.4 | 10.5 | 10.7 | 8.74 | 12.6 | 8.38
49 | AUUCACCUAGGGCAUCGGGUA [Fam2.2 aminoacylation ribozyme variant] | 2.02 | 2.89 | 3.25 | 3.46 | 2.34 | 3.3
50 | AUUCACCUAGGGCGUCGGGUG [Fam2.2 aminoacylation ribozyme variant] | 9.76 | 1.73 | 2.21 | 1.84 | 2.92 | 1.83
51 | AUUCACCUAGGUAAACGGGUG [Fam2.2 aminoacylation ribozyme variant] | 22.9 | 1.97 | 3.77 | 2.27 | 4.47 | 3.84
